Entries after “also recorded” stand apart in the source; their conditions may differ.
B1: lactoferrin: lactoferrin from human milk; iron-binding ~80 kDa glycosylated protein (protein, UniProt P02788 20-710, looked up)
Lactotransferrin: GRRRSVQWCAVSQPEATKCFQWQRNMRKVRGPPVSCIKRDSPIQCIQAIAENRADAVTLDGGFIYEAGLAPYKLRPVAAEVYGTERQPRTHYYAVAVVKKGGSFQLNELQGLKSCHTGLRRTAGWNVPIGTLRPFLNWTGPPEPIEAAVARFFSASCVPGADKGQFPNLCRLCAGTGENKCAFSSQEPYFSYSGAFKCLRDGAGDVAFIRESTVFEDLSDEAERDEYELLCPDNTRKPVDKFKDCHLARVPSHAVVARSVNGKEDAIWNLLRQAQEKFGKDKSPKFQLFGSPSGQKDLLFKDSAIGFSRVPPRIDSGLYLGSGYFTAIQNLRKSEEEVAARRARVVWCAVGEQELRKCNQWSGLSEGSVTCSSASTTEDCIALVLKGEADAMSLDGGYVYTAGKCGLVPVLAENYKSQQSSDPDPNCVDRPVEGYLAVAVVRRSDTSLTWNSVKGKKSCHTAVDRTAGWNIPMGLLFNQTGSCKFDEYFSQSCAPGSDPRSNLCALCIGDEQGENKCVPNSNERYYGYTGAFRCLAENAGDVAFVKDVTVLQNTDGNNNEAWAKDLKLADFALLCLDGKRKPVTEARSCHLAMAPNHAVVSRMDKVERLKQVLLHQQAKFGRNGSDCPDKFCLFQSETKNLLFNDNTECLARLHGKTTYEKYLGPQYVAGITNLKKCSTSPLLEACEFLRK
B2: Unsaturated iron lactoferrin: lactoferrin that has been depleted of iron; also termed reduced iron lactoferrin or apolactoferrin (protein, UniProt P02788 20-710, looked up)
Lactotransferrin: B1 Lactotransferrin
modifications: iron-depleted apolactoferrin

Key:
SARS-CoV-2 [1] = format: cell-based; conditions: 400 μg/ml lactoferrin, 48 h after infection
SARS-CoV-2 [2] = test system: SARS-CoV-2

Row | Molecule | Decrease of N-protein RNA copies (SARS-CoV-2 [1]) [%] | Inhibition of SARS-CoV-2 infection in vitro (SARS-CoV-2 [2]) | Reduction of virus-induced cytotoxicity (SARS-CoV-2 [2]; MOI 0.3)
1 | B1 | 28.0 |  | 
2 | B2 |  | directly inhibited SARS-CoV-2 infection more effectively compared to hololactoferrin; also recorded: inhibited SARS-CoV-2 infection when administered alone | more effective than recombinant lactoferrin
